Assay results reported in patent publication EP1169642B1.

Target: purified human complement Factor H (human) (UniProt P08603)
Test: steady state fluorescence titration of purified human Factor H

purified human complement Factor H (human), sequence (P08603 19-1231 limits assumed): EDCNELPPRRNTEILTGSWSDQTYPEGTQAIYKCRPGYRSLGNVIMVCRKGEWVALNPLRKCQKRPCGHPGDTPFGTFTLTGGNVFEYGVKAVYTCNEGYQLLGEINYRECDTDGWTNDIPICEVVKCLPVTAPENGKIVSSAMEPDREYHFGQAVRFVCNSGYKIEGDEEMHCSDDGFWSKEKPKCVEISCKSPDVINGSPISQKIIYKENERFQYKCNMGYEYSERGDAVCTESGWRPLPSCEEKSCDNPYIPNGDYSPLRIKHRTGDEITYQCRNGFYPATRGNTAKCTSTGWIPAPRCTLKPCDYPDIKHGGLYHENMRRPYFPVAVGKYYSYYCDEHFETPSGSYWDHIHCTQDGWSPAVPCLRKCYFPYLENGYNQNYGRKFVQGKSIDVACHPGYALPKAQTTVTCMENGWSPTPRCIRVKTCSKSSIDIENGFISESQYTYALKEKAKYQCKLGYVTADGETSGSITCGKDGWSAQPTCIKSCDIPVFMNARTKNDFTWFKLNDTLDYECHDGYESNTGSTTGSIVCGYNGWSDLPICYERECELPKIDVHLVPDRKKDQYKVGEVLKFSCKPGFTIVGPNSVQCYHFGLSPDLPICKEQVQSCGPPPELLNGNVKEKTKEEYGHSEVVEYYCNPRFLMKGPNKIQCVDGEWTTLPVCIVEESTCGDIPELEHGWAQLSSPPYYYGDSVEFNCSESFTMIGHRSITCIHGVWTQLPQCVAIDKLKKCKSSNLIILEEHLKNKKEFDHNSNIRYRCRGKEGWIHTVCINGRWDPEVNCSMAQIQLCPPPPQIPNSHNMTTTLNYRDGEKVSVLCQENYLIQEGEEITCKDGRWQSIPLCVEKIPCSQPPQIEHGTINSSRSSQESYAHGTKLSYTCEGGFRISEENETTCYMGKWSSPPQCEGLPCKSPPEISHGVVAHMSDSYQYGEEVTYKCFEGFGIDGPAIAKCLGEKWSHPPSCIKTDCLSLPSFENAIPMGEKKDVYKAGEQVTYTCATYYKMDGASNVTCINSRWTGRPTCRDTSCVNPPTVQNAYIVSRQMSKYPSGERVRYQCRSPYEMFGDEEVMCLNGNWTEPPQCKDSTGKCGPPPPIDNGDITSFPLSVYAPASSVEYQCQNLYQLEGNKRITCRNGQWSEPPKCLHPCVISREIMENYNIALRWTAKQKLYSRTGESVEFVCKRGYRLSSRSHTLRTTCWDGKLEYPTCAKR

stoichiometry (DMP1:Factor H): 1 molar ratio
B1: recombinant dentin matrix protein 1 (rDMP1) (ligand)
chain: LPVTRYQNNESEDSEEWKGHLAQAPTPPLESSESSEGSKVSSEEQANEDPSDSTQSEEGLGSDDHQYIYRLAGGFSRSTGKGGDDKDDDEDDSGDDTFGDDDSGPGPKDRQEGGNSRLGSDEDSDDTIQASEESAPQGQDSAQDTTSESRELDNEDRVDSKPEGGDSTQESESEEHWVGGGSDGESSHGDGSELDDEGMQSDDPESIRSERGNSRMNSAGMKSKESGENSEQANTQDSGGSQLLEHPSRKIFRKSRISEEDDRSELDDNNTMEEVKSDSTENSNSRDTGLSQPRRDSKGDSQEDSKENLSQEESQNVDGPSSESSQEANLSSQENSSESQEEVVSESRGDNPDPTTSYVEDQEDSDSSEEDSSHTLSHSKSESREEQADSESSESLNFSEESPESPEDENSSSQEGLQSHSSSAESQSEESHSEEDDSDSQDSSRSKEDSNSTESKSSSEEDGQLKNIEIESRKLTVDAYHNKPIGDQDDNDCQDGY
